Results as given in the nanobody polyreactivity screen of Harvey et al. (2022).

Assay: yeast display, Sf9 membrane polyspecificity reagent, FACS + sequencing; frameworks hold sequencing errors
In short: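 Genes from sorted yeast were amplified by colony PCR, read by MiSeq 2 × 250 sequencing and filtered on CDR length. These cells carried a synthetic nanobody library in Saccharomyces cerevisiae BJ5465 and were sorted by FACS into low and high (top ~1%) gates on anti-HA and streptavidin fluorescence. Polyreactivity is labelled according to the gate of origin.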

Sequence | polyreactivity (PSR sort gate)
QVQLVESGGGLVQAGGSLRLSCAASGSIFPRNAMGWYRQAPGKERELVAAITTTGGITHYADSVKGRFTISRDNAKNTVYLQMNSLKPEDTAVYYCAASNEVPWRFPDDYWGQGTQVTVSA | low polyreactivity
QVQLVESVRGLVQAGGSLRISCASSGSTFFTYPMGWYRQAPGKERELVASISIGGSTNYADSVKGRFTISRDNAKNTVYLQMNSLKPEDTAVYYCAKRYFTFGVDYDYWGQGTQVSVSS | low polyreactivity
QVQLVESGGGLVQAGGSLRLSCAASGSIFVGYAMGWYRQAPGKERELVASINYSGGTTDYADSVKGRFTISRDNAKNTVYLQMNSLKPEDTAVYYCAKTAVDWSFTKGVDYDYWGQGTQVTVSS | low polyreactivity
QVQLVESGGGLVQAGGSLRLSCAASGSIFVGYAMGLYRQAPGKERELVAAISASGGRTYYADSVKGRFTISRDNAKNTVYLQMNSLKPEDTAVYYCATDDYWGRGTQVTVSS | high polyreactivity
QDQLVESGGRLVQAVGSLRLSCAASGRIFTDYTMGWYRQAHGKERELVAAISYSGGSTYYADSVKGRFTISRDNAKNTVYLQMNSLKPEDTAVYYCNKDYYVHDGYGYWGQGTQVTVSS | low polyreactivity
QVQLVESGGGLVQAGGSLRLSCAASGRTFQRNVMGWYRQAPGKERELVAAISSSGGGTYYADSVQGRFTISRANAKNTVYLQMNSLKPDDTAVYYCAARYRSYGGYGYYYWGLGTQVTVSS | high polyreactivity
QVQLVESGGGLVQAGGSLRLSCAASGIIFDTYAMGWYRQAPGKERELVAAISRSGDTTYYADSVKGRFTISRDNAKNTVYLQMNSLKPEDTAVYYCNRGNRWNFDSWGQGTQVTVSS | high polyreactivity
QVQLVESGGGLVQAGASLRLSCAASGSISKSYAMGWYRQAPGKERELVAAISWRGGSTYADSVKGRFTISRDNAKNTVYLQMNSLKPEDTAVYYCAAVPVHTGSLYWGFTTGYDYWGQGTQVTVSS | low polyreactivity
QVQLVESGGGLVQAGGSLRLSCAASGRIFLLNAMGWYRQAPGKERELVARISSGRTYYADSVKGRFTISRDNAKNTVYLNMNSLKPEDTAVYYCNATVSSSKYRYFYVNPYYYWGQGTQVTVSS | low polyreactivity
QVQLVESGGGLVQAGGSLRLSCAASGFIYERNAMGWYRQAPGKERELVAAISGGGSTNYADSVKGRFTISRDNAKNTVYLQMNSLNPEDTAVYYCAADSWWYPFDYWGQGTQVTVSS | high polyreactivity
QVQLVESVGGLVQAGGSLRLSCAASGGTFQHYTMGWYRQAPGKERELVAAISLSGTRTYYADSVKGRFTISRDNAKNTVYLQMNSLKPEDTAVYYCAARYGVEYWGQGTQVTVSS | low polyreactivity
QVQLVESGGGLVQAGGSLRLSCAASGRTFYLYTMGWYRQAPGKERELVAGISWSGGSTYADSVKGRFTISRDNAKNTVYLQMNSLKPEDTAVYYCAAEVYYGYDYWGQGTQVTVSS | low polyreactivity
QVQLVESGGGLVQEGGSLRLSCAAYGSTSYRYAMGWYRQAPGKERELVAASSSSGGSTYYADSVKGRFTISRDNEKNTVYLQMNSLKPEDSAVYYCAARFYSGPGGYTMYYWGQGTQVSVSS | high polyreactivity
QDQLVDSGGGLVQAGGSLRLSCAASGSTFDANAMGWYRQAPGKERELVATISDGGSTNYADSVKGRFTISRDNAKNTVYLQMNSLKPEDTAVYYCAAVKLFLGLGYVYWGQGTQVTVSS | low polyreactivity
QVQLVESGGGLVQAGGSLRLSCAASGSTFYAYTMGWYRKAPGKERELVAGISRRGGTTYYADSVKGRFTISRDNAKNTVYLQMNSLKPEYTAVYYCAADKTKPQASEGYYAYYYWGQGTQVTVSS | low polyreactivity
QVQLVESGGGLVQAGGSLRLSCAASGSIFRENAMGWYRQAPGKERELVAAITDGGDRTYYADSVKGRFTISRDNAKNTVYLQMNSLKPEDTAVYYCAARWLYWPRYNSLVYTHRDSWGQGTQVTVSS | low polyreactivity

Sequence | polyreactivity (PSR sort gate)
QVQLVESGGGLVQAGGSLRLSCAASGRTITAYTMVWYRQAPVKEREMVASISSGVTYADSVKGRFTISRDNAKNTVYLQMNRLKPEDTAVYYCAARLWYVQGYVPYVHHRFDYWGQGTQVTVSS | low polyreactivity
QVQLVESGGVLVQAGGSLRLSCAASGFTFYRYDMGWYRQAPVKERELVAAITWSGGSTYYADSLKGRFTISRDNAKNTVYLQMNSLKPEDTAVYDCAAENYDGGFEYWGLGTQVTVSS | low polyreactivity
QVQLVESGGGLVQAGGSLRLSCAASGRIFAPKAMGWYRQAPGKERELVATITWSGGSTYYADSVKGRFTISRDNAKNSVYLQMNSLNPEDTAVYYCAAETQIRLWSLQYRYYYWGQGTQVTVSS | low polyreactivity
QVQLVESGAGLVQAGGSLRVSCAASGSIFGKNAMGWYRQAPGKERELVAAITSSGGSTYYADSVKGRFTISRDNAKNTVYLQMNSLKPEDTAVYYCAARPWIWARAGYYWGQGTQVTVSS | high polyreactivity
QVLLVESGGGLVQAGGSLRLSWAASGSIFTIYAMGWYRKAPGQERELVAAMNRGDGTNYADSVKGRFTISRDKAKNTVYLQMKSLKPEDTPVYYCAAEYYTEYQKWFDYWGQGTQVTLSS | high polyreactivity
QVQLVESGGGLVQAGGSLRLSCAASGRIFYRYGMGRYRPAHGKVRELVASITRGGSTYYADSVKWRFTISRDNAKNTVYLQMNSLKPEDTAVYDSNRDIGGTSVLDDYWGQGTQVTVSS | low polyreactivity
QVQLVESGGGLVQAGGSLRLSCAASGSIFRPYAMGWYRQAPGKEMELVAAISSSGGSTYYADSVKGRFTISRDNAKNTVYLQMNSLKPEDTAVYYCAAESRSTWIHSRDYWGQGTQVTVSS | low polyreactivity
QVQLVESGGGLVQAGGSLRLSCAASGFTFTFYALGWYRQAPGKERELVAAIRTSDGRTYYADSVKGRFTISRDNAKNTVYLQMNSLKPEDTAVYYCNARRYVGYDYWGQGSQVTVSS | high polyreactivity
QVQLVESGGGLVQAGGSLRLSCAASGFTISDNAMGWYRQAPGKERELVAAITSGTSTYYADSVKGRFTISRDNAKNTVYLQMNSLKPEDTAVYYCAARTYYSGYLWARGYWGQGTQVTVSS | high polyreactivity
QVQLVESGGGLVQAGGSLRLSCAASGRIFVAYAMGWYRQAPGKQRELVADIDYIDGSTYYADSVKGRFTISRDNAKNTVYLQMNSLKPEDTAVYYCAVDSLYYAGYYDYWGQGTQVTVSS | high polyreactivity
QVQLVESGGGLVQAGGSLRLSCAASGSIFSYYAMGWYRQAPGKERELVAAITIRGGRTYYADSVKGRFTISRDNAKNSVYLQMNSLKPEDTAVYYCAAETGHKQHGYTYEVSRRCYGYWGQGTQVTVSS | low polyreactivity
QVQLVESGGCLVQAGGSLRLSCSASGIIFFPYAMGWYRQAPGKERELVASINISDSSTYYADSVNGRFTISRDNAKNTVYLQMNTLKPEDSAVSYCAADNPGDSWYWHGNWGQGTQVTVSS | low polyreactivity
QVQLVESGGGLVQAGGSLRLSCAASGFIFSSYAMGWYRQAPGKERELVARISLSGGSTFYADSVKGRFTISRDNAKNTVYLQMNSLKPEDTAVYYCAARDFSTHFSPMDYWGQGPQVTVSS | low polyreactivity
QVQLVESGRGLVQAGGSLRLSCAASGITFEYYAMGWYRQAPGKERELVAAIDTGGSTNYADSVKGRFTISRDNAKNTVYLQMNSLKPEDTAVYYCAADWSWWDGEDYHFEYDYWGQGTQVTVSS | low polyreactivity
QVQLVESGGGLFQAGGSLRLSCAASGFTFTRYAMGWYRQAPGKERELVATITKRGGSTYYADSVKGRFTISRDNAKNTVYLQMNRLKPEDTAVYYCAADGASRALYDYWGQGTQVTVSS | high polyreactivity
QVQLVESGGGLVQAGGSLRLSCAASGSTFYRYAMGWYRQAPGKERELVATISWTDGRTNYADSVKGRFTISRDNAKNPVYLQMNSLKPEDTAVYDCAARRYRRWYDYWGQGTQVTVSS | high polyreactivity
